Source: PMC4018761

How the values were obtained:
[1] = biological target: GST-E2 300-360 (Epstein-Barr virus) (UniProt P12978); assay: pull-down
[2] = biological target: GST-E2 335-360 (Epstein-Barr virus) (UniProt P12978); assay: pull-down

endogenous PRMT5 (protein arginine methyltransferase 5) (from UniProt O14744 1-637) (enzyme)
percent of endogenous PRMT5 pulled down [1]: 5%
percent of endogenous PRMT5 pulled down [2]: 5%
